According to article PMC11948038 (2025):

Target: cytochrome c (UniProt P99999 2-105)
Test: NMR

Sequence of cytochrome c (P99999 2-105): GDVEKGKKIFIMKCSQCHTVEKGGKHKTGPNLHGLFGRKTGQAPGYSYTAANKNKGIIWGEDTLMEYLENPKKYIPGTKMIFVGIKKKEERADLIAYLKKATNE

- Kd: 379 µM
B1: full-length ANP32A (natural protein)
chain: MEMGRRIHLELRNRTPSDVKELVLDNSRSNEGKLEGLTDEFEELEFLSTINVGLTSIANLPKLNKLKKLELSDNRVSGGLEVLAEKCPNLTHLNLSGNKIKDLSTIEPLKKLENLKSLDLFNCEVTNLNDYRENVFKLLPQLTYLDGYDRDDKEAPDSDAEGYVEGLDDEEEDEDEEEYDEDAQVVEDEEDEDEEEEGEEEDVSGEEEEDEEGYNDGEVDDEEDEEELGEEERGQKRKREPEDEGEDDD
